Assays:
[1] = target: 3xFlag-Core R50A (hepatitis C virus genotype 2a, strain JFH1); assay: co-IP; SGR-JFH1 (Huh7 subgenomic JFH1 replicon) cells transfected with 3xFlag-Core (wild type or mutants); anti-Flag M2 agarose, eluted with 3xFLAG peptide; anti-NS5A blot, quantified by IR fluorescence and normalised to precipitated core and expression, three experiments
[2] = target: 3xFlag-Core R59A (hepatitis C virus genotype 2a, strain JFH1); assay: as above
[3] = target: 3xFlag-Core R62A (hepatitis C virus genotype 2a, strain JFH1); assay: as above
[4] = target: Core-Flag-R50A/K51A/R59A/R62A (hepatitis C virus genotype 2a, strain JFH1); assay: co-IP; Huh7.5.1 stable cell lines expressing full-length JFH1-Luc/Neo-Core-Flag genomes (wild type or core mutants); anti-Flag M2 agarose, eluted with 3xFLAG peptide; anti-NS5A blot, quantified by IR fluorescence, three experiments
full-length NS5A-His [5] = target: T1, full-length NS5A-His (hepatitis C virus genotype 2a, strain …, UniProt Q99IB8 1977-2442); assay: pull-down; as a4, proteins treated with 1, 5 or 10 µM BMS-790052 for 30 min at 4°C; details: both partners purified
T1 construct: HCV nonstructural protein 5A (NS5A), genotype 2a strain JFH1, full-length; pET-UbCHis vector; also called recombinant NS5A-His; source: E. coli BL21(DE3)pCG1, purified as described previously [60]; not shown: His6, C-terminal, kept
T1 sequence: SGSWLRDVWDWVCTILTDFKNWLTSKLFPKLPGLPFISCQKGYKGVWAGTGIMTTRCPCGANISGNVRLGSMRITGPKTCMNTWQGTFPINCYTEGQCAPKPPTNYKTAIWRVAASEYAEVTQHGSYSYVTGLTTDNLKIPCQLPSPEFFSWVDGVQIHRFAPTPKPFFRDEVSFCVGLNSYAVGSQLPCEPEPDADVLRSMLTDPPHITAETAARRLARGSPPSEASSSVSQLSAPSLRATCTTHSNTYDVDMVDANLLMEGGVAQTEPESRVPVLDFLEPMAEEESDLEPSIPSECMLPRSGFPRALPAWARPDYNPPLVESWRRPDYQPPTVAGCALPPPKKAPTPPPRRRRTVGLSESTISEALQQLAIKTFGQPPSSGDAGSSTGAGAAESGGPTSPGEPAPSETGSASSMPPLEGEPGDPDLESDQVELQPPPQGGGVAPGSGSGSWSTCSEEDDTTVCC

full-length NS5A-His [6] = target: T1, full-length NS5A-His; assay: pull-down; 4 µg GST protein (bait) mixed with 10 µg NS5A protein in 100 µl binding buffer (50 mM Tris-HCl pH 7.5, 100 mM NaCl, 5 mM MgCl2, 10% glycerol, 0.5% Igepal CA-630, 1 mM DTT), 3 h at 4°C, then glutathione beads 1 h; Western blot (anti-NS5A, anti-Flag), in Figure 3 quantified by IR fluorescence; details: both partners purified

In the case of “subgenomic NS5A (from UniProt Q99IB8 1977-2442) (natural protein)”, the percent reduction in NS5A binding against wild type [1] is reported as 8%, the percent reduction in NS5A binding against wild type [2] is reported as 65% and the percent reduction in NS5A binding against wild type [3] is reported as 17%.

“NS5A from JFH1-Luc/Neo-Core-Flag expressing cells (from UniProt Q99IB8 1977-2442) (natural protein)” was tested, and the percent reduction in NS5A binding against wild-type core [4] was 85%.

B1: GST-Core1-170-His (domain or fragment)
chain: MSTNPKPQRKTKRNTNRRPEDVKFPGGGQIVGGVYLLPRRGPRLGVRTTRKTSERSQPRGRRQPIPKDRRSTGKAWGKPGRPWPLYGNEGLGWAGWLLSPRGSRPSWGPTDPRHRSRNVGKVIDTLTCGFADLMGYIPVVGAPLSGAARAVAHGVRVLEDGVNYATGNLP
notes: HCV core protein, genotype 2a strain JFH1, residues 1-170 (domains D1 and D2); pGEX-2T; also called GST-Core-His; core (D1 and D2 domains); not shown: GST, N-terminal, kept; His6, C-terminal, kept
B1: binds (full-length NS5A-His [5]).

B2: GST-Core-BD2-His (domain or fragment)
chain: PRRGPRLGVRTTRKTSERSQPRGRRQPIPKDRRSTGK
notes: HCV core protein, genotype 2a strain JFH1, residues 38-74 (basic domain 2); linker as in m1; also called GST-Core38-74-His; GST-BD2-His; not shown: GST, N-terminal, kept; His6, C-terminal, kept
B2: binds (full-length NS5A-His [6]).

B3: GST-Core2-23-His (domain or fragment)
chain: STNPKPQRKTKRNTNRRPEDVK
notes: HCV core protein, genotype 2a strain JFH1, residues 2-23 (basic domain 1); linker as in m1; also called BD1; BD1 (2-23); not shown: GST, N-terminal, kept; His6, C-terminal, kept
B3: binds (full-length NS5A-His [6]).

B4: GST-Core101-121-His (domain or fragment)
chain: RGSRPSWGPTDPRHRSRNVGK
notes: HCV core protein, genotype 2a strain JFH1, residues 101-121 (basic domain 3); linker as in m1; also called BD3; BD3 (101-121); not shown: GST, N-terminal, kept; His6, C-terminal, kept
B4: binds (full-length NS5A-His [6]).
